# Measured values as given in the supplement of paper PMC9170038.
# Tested on: K4 kissing-loop RNA reporter
# Assay: apparent KD of K4 kissing-loop reporter; higher = weaker reporter binding
# Details: Eterna round: R107
# Method: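 RNA-MaP round R107: designed RNA switches with theophylline, tryptophan, arginine or FMN aptamers are transcribed on-chip within common flanks. They are titrated with a labelled K4 kissing-loop RNA reporter in RNA-MaP buffer (100 mM Tris pH 7.5, 80 mM KCl, 4 mM MgCl2), without ligand or with the indicated ligand. Median apparent KD per design.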
# [1] = input ligand: theophylline 20 uM
# [2] = input ligand: tryptophan 2.4 mM
# 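Also: bound reporter read as fluorescence of individual clusters on recovered sequencing chips by microscopy, with normalized cluster intensities fitted with a binding model.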
Sequence,apparent KD of K4 kissing-loop reporter (input ligand: FMN 200 uM) [nM],apparent KD of K4 kissing-loop reporter (input ligand: arginine 13.2 mM) [nM],apparent KD of K4 kissing-loop reporter (input ligand: none) [nM],apparent KD of K4 kissing-loop reporter [1] [nM],apparent KD of K4 kissing-loop reporter [2] [nM]
AAGCAGUCCCUUGUUGUCAUCGAAGAUGAACGAGGACCGGUACGGCCGCCACUCGGAGUGAUGUUCCGAAGGCUGCAAAAUAAAA [MatMod 20 - Jieux - Exclusion - Tryptophan A],109,112,116,115,205
UAACUGCAGUGAUGUUGCAGAUGUCCUGACUAGGAUAUCAGGAAACUGAGAAGGAGUCCCUUCUAAACAUCACAGAAGGAGGACA [[K1]-[K2]-[F1]'-[F1]-[F2]-[F2]'-[K]'-[F]''_Design2],491,415,434,508,442
UGGGUUGGAAGUGAUGUUUCUCUAAGUGAUACCAGACAAAAGAAAGUCCCUUGGCAGCACAAUGAUGCCAAGGAAACGGCAUGAU [#16 K4 Theophylline A Same State],229,244,260,250,195
GCUAUGGUAGGAAGGAGCGCUUACUCGUUAAUAAGAGUGAUGUUCGAUAACGAGUAUUUAUAGCAGGUAGGUCGCCUACUAUAGC [Arginine B K4 4],207,193,168,242,199
UCCUAGGUUCGUCGGCGAAAGCCCUGCGAAGGAGCGUGCGAAAGCACAGGUAGGUCGCGCAGUGAUGUUGCACCUAGGUAAUAAA [#SwitchBubble 23 #K4Late],1030,672,344,150,781
GUUACGCAUGGAAGGAGCGCUCUCCGGCUUAUUAACACAGUGAUGUUGUGAUUUUGCCGAAAGCAGGUAGGUCGCCAUGUGUAAC [Ex Arginine B K4 11],487,363,451,447,451
AUUUAUUCGUACUUUCAGUGAUGUUGAUAACGAGGACCGGUACGGCCGCCACUCGAUUUGGCGAUUUUGUAUUUUUUAUUCUAUA [JR_SSTryptoA_Sub010],403,474,510,415,317
GGUAGCAUGGCGGCCGCCACUUUUUUAGAUACCUACACAGAAAGCAGUGAUGUUGCUUGGUGGUAAAGGACCGGGCCAUGCUACC,149,131,136,137,105
AAAUAAAUGGCGGCCGCCACUGAACGCCUCCGCGUGGGUAUAUAGUGAUGUUAUAUGGCCGCCAUCAGGACCGGGCCAAAUAAAA [#08 K4 Tryptophan B Same State],330,259,502,377,222
GGUGGCGUUGUUGACAGCUCACCACGAGCCAAGGAUAUAGUUUCUUCUAGAAGGUGGAAUGACAAGUGAUGUUUGUACGACUGCU [theeternabot_exclusion_KL_FMN_A_28],254,233,254,294,185
CCCUCACGAGUGAUGUUCGUAGGGUACAGUCAGGAUAUCAUGCGGUUGAGAAGGGACAGGAAGGGCGGCGGCGGGUUGCUCACCG [Atera],154,163,192,204,150
UAGUGGUAGACCAGAUCUACCACUAGGGAUACCAGCCUCGGUCGAGGCCCUUGGCAGCCCAGCGGGUCCAGUGAUGUUGGAUGUC [Raanza],355,256,322,194,295
AGGAUCCACCAGUGAUGUUGGAAAUACUCCAAGGAUAUGACGAAAGUCAGAAGGUGGUAGACUGGACAAAGUCCAGUCGGAUCCA [FmnA 28 #SwitchBubble #K4Early],534,247,602,486,346
AUGUACACGAUAGUGUACUCCUAGUGAUGUUAGGAUAUGCAGAUAUGCAGAAGGGACAAGUCAUCUGACAAUAGUCGGAUGACAA [FmnAX 10 #OpenEnded #K4Early],179,85.6,109,114,91.5
ACGUAGUUCUAGGAUACCAGCCAAGGAGCGCAGGACAAAAGUCCUGCCGCCAGUGAUGUUGGCCCUUGGCAGCCUAGAACUACGA [Omei KL Theo B Exc B v1],193,162,145,165,160
GAGGGCCCUGUAGGAUAUGAGUCUAGUGAUGUUAGGCGGUCCAUGCGCGUGGCGCGUUAUGCCCUUUUAGAAGGACAGGGCUCUC [#2 Exclusion - FMN B Attempt #21 (HarryS)],109,63,82.4,83.3,84.7
CGCCGCAAGGCGGUCCUGCCCACUCCGGAAGGAGCGCCCGCAAGGGCAGGUAGGUCGCCGGAGUGAUGUUCCGGUGGCAGGACCG [#2 Exclusion - Arginine A Attempt #4 (Inspired by Omei)],477,112,422,264,245
AAGAAUAAUCUUGCAGUGAUGUUGCAAGAUACCAGCAUCGAAAGAUGCCCUUGGCAGCUUGAAAACAUCACUAUCAAGCUGCAUA [Design2],620,452,664,552,558
AAGUGUGUGGCGGCCGCCACUAGAAUCCAGUGAUGUUGGAGUUAUCAUGUAAAUGAUAAUCAACAUAGGACCGGGCCAUAUAGAA [Same State - Tryptophan B (Freestyle 8)],630,377,701,441,349
UGAUACCAGACGGCCGCCACUCCCGUAAGUCAAAGACUUACGAAGAGAAUCGUCCAGUGAUGUUGGAGGACCGGGUCUGGUAUCU [FiskerMod 11 - Jieux - Exclusion - Tryptophan B],680,664,818,600,785
UUCUACGUGCAAGGAUAUCCAUACGCUGCUAAGCGGGUAGCGAUAUAUGGAGUGAUGUUCCAUGUAGGAGAAGGUGCACUGUCCU [Rieser],144,295,348,253,242

Sequence,apparent KD of K4 kissing-loop reporter (input ligand: FMN 200 uM) [nM],apparent KD of K4 kissing-loop reporter (input ligand: arginine 13.2 mM) [nM],apparent KD of K4 kissing-loop reporter (input ligand: none) [nM],apparent KD of K4 kissing-loop reporter [1] [nM],apparent KD of K4 kissing-loop reporter [2] [nM]
UGCCGGGCUGUACGUUACUUAAAUCGCGAUACCAGCGAUACAAUCCGCCCUUGGCAGCGCAGUGAUGUUGCGCGGUCAUUACGGG [theeternabot_exclusion_KL_Theo_A_27],100,90.5,95.8,103,91.4
AUGUAUAUCUCAGGAUAUAUAUGUGUGUGGUGUAUACAUAGUGAUGUUGUGUAUAUCCACAUAUGUAUAGAAGGGAGAUGUGCAU [Skye_SS_FMNB],76.3,73.5,73.9,66,72
UAAUAUCCGUCGGCCGCCACUCACCAGUGAUGUUGGAGGAGUGAUGUUCCACGAGUGAUGUUCGAGAGGACCGGGACGGACGAUG [6th],134,114,126,108,103
UGGAGUUGACGAAAAGUCAACUCCUGAGAUACCAGUGACGAAGGUCACCCUUGGCAGCUCACUGCUAGUGAUGUUGGAAGAUAAA [whbob_SS_Theo_A_w48],1390,276,913,2350,792
UAUACACAGGGAGGAUAUGCCCACACAACAACCGAGUGAUGUUCGGACAAUACACAUAAUACACGGGCAGAAGGCCCACAUCACA [SS FNM B Tesla 1],143,195,245,192,139
UGCGCUGCCUGAGGAUAUAGAAACGAGUGAUGUUCGUGGAUAAGAGCCAGUGAUGUUGGGUUAUUUCUAGAAGGCAGGCAAAGUA [Exclusion FMN B GF7],108,98.2,117,93.4,104
AUCAUUAGUUCGGCCGCCACUCCAGUGAUGUUGGAGGGACGCAUAAUAUGCGCGCGGCUAACUAGGAGGACCGGGAACUUUAGGC [Maonce],82.8,115,133,86.9,156
ACUAUCAUUACGCAUGGAGUGAUGUUUCAGCGAGGACCGGUACGGCCGCCACUCGUUACGUGGUUAGAGCCAAUGUUCGAGAAGC [theeternabot_exclusion_KL_Trp_A_39],1170,832,927,1270,520
AGUGUGCAAAAGCACACUCAGUACAAGGACAAGGAUAUCUACUAAUAGAGAAGGUGUCCUUUCCUUAGUGAUGUUAAGGAACUGA [Omei KL FMN A SS D v3],205,500,617,657,595
CGGAUGUAGUGAUGUUAUAUAAGAAGUAGACGAGGACCGGUACGGCCGCCACUCGAAACGGCUACUAGCGCGUUGCGAGGUGUGC [ExTryptoA.Ch],651,681,549,688,500
UGGGAUGGGCGAGGAUAUGGUGAGGUGGCGGUUGUUAGUGAUGUUGGUGAUGCUAGUGAUGUUUGUCCAGAAGGCGCGGGAUUUU [BDazzled],218,104,171,179,168
AGACUACCACACUGUCAAUAGACAGUGAACUCGGAUAUGCUGAUAAGCAGAAGGAGUGAUGUUCCGAGGUAGUCAAUAAAAUAAU [FmnAX 13 C32+G66],263,316,568,448,521
GAUGAUCGCGCGGCCGCCACUGGUCAGUGAUGUUGACAUUAAUGCGCCGAGUAGUAACGGCGCAGUAGGACCGGGCGCGAUGUAG [#13 K4 Tryptophan B Same State],151,139,139,198,110
CCCGCGUCGUUAGUGAUGUUGACUUCUGAUACCAGUCGCAGGUAGGACCCUUGGCAGCAGCAGUUUUGUUAUAUGUAGGAUCCAG [theeternabot_exclusion_KL_Theo_A_36],727,201,717,445,490
UGUGAGCUGUCGACAAAAGUCGACUAAAAUGAGGAUAUGACGAAAGUCAGAAGGCAUCAAUAAUGGAGUGAUGUUCCUGCUCACU [FmnA 9 U30+A56],373,432,809,790,763
AAAGUCGGCUGUGAUACCAGUCAUAUAACAACAUAUCGCAGUGAUGUUGCGAGAUAGGAUGACCCUUGGCAGCACUCAGUACGAU [Same State Theophylline B GF 6],349,360,380,331,338
GGAUUCGGCGCGGCCGCCACUUCCGGUGGCUGGUGUCAUGGUGCGCGUGAGUGAUGUUUAUGUGGGAGGACCGGGCGUUGAGUCC [whbob_Ex_Tryp_B_w45],577,322,767,441,305
GCAAACCUCAGUGAUGUUGAGAAAUCGGAAGGAGCGCGUGAAAACGCAGGUAGGUCGCCGACACAUGAAGUAUCUUCGUGUUUGC [Arginine A K4 22],276,272,316,328,243
CGCACACUUGUUGAUACCAGAAGCCGACCGGAAACAUCAUUGAGUGAUGUUCAAGCUGUUUUCCCUUGGCAGCAAACGAGUGGUC [theeternabot_exclusion_KL_Theo_B_22],150,120,138,132,138
AUGUGGAGCGACGUUUAGAGAAACCGGGAAGGAGCGCGGAUAACCGCAGGUAGGUCGCCUGGUUGCCAGUGAUGUUGGCGACGUG [Exclusion Arg A GF 25],87.4,222,144,96,138
UGUCAUUGGUCUGAUACCAGUUAGACCGAUAGGUCAAAACUGGAGUGAUGUUCCCAAAAUAACCCUUGGCAGCAGACCGAUGACU [TheoBS 3 #SwitchBubble #StaticStem],280,149,152,282,191
